Measurements: PMC9482650, “Quantitative fragmentomics allow affinity mapping of interactomes” (Nature Communications, 2022)

T1: ARHGEF11, O15085
T1 sequence (O15085 42-136, limits assumed, looked up): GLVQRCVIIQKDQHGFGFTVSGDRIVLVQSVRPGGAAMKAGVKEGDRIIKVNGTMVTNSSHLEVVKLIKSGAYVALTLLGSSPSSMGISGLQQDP

T2: DVL3, Q92997
T2 sequence (Q92997 244-331, limits assumed, looked up): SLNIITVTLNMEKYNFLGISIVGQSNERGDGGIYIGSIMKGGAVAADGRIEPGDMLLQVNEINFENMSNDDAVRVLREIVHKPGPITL

T3: HTRA4, P83105
T3 sequence (P83105 378-476, limits assumed, looked up): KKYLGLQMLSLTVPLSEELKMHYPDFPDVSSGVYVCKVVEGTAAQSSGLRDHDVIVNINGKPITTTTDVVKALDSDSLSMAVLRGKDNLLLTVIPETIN

T4: MPP2, Q14168
T4 sequence (Q14168 180-250, limits assumed, looked up): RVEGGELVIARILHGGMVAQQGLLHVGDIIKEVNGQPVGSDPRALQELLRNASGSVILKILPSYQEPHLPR

T5: APBA2_1, Q99767
T5 sequence (Q99767 563-664, limits assumed, looked up): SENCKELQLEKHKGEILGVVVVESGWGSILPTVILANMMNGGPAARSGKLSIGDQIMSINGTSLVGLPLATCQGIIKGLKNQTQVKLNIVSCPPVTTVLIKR

T6: SNTG1, Q9NSN8
T6 sequence (Q9NSN8 52-150, limits assumed, looked up): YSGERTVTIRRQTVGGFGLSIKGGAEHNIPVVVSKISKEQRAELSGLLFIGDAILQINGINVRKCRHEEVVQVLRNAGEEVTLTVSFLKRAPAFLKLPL

T7: APBA1_2, Q02410
T7 sequence (Q02410 742-832, limits assumed, looked up): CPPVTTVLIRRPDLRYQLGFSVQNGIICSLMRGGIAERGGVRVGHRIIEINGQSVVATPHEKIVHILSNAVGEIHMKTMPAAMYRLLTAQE

T8: MPDZ_12, O75970
T8 sequence (O75970 1857-1958, limits assumed, looked up): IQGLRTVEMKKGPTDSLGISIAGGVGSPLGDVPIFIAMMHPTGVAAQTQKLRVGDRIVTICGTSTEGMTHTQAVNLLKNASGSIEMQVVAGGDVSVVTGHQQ

T9: TIAM2, Q8IVF5
T9 sequence (Q8IVF5 885-986, limits assumed, looked up): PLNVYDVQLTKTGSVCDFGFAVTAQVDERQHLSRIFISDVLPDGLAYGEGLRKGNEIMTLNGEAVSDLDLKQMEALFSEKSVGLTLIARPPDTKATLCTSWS

T10: PDZD7_3, Q9H5P4
T10 sequence (Q9H5P4 857-944, limits assumed, looked up): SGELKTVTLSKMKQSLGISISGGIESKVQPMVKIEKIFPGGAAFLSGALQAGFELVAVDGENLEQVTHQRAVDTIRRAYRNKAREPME

T11: MPP7, Q5T2T1
T11 sequence (Q5T2T1 134-230, limits assumed, looked up): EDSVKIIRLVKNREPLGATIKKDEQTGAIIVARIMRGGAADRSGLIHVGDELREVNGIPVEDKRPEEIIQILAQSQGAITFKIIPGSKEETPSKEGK

T12: GRIP1_7, Q9Y3R0
T12 sequence (Q9Y3R0 999-1096, limits assumed, looked up): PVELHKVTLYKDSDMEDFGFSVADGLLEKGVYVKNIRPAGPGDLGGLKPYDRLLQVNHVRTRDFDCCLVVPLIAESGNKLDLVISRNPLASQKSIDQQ

T13: NHERF3_3, Q5T2W1
T13 sequence (Q5T2W1 238-333, limits assumed, looked up): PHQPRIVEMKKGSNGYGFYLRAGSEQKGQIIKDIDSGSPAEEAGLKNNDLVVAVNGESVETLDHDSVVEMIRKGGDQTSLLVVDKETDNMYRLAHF

T14: LNX2_2, Q8N448
T14 sequence (Q8N448 334-432, limits assumed, looked up): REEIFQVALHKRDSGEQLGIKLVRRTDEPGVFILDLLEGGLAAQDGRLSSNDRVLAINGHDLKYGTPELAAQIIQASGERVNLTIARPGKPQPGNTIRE

B1: CLDN2, P57739 (peptide)
chain: FNSYSLTGYV

Target: SCRIB_1, Q14160
Sequence (Q14160 718-814): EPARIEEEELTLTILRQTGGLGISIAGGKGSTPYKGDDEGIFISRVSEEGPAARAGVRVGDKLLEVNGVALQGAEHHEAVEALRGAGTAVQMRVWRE
Test: holdup assay
Parameters: key: below the threshold = too weak to quantify, mostly under pKd 3.1 to 4
Details: plain residues with an end cap or a label only (N-terminal biotin on a linker: ado-ado)

Row | Binder | pKd
1 | B1 | below the threshold

Target: T1, ARHGEF11, O15085
Test: holdup assay
Parameters: key: below the threshold = too weak to quantify, mostly under pKd 3.1 to 4
Details: plain residues with an end cap or a label only (N-terminal biotin on a linker: ado-ado)

Row | Binder | pKd
2 | B1 | 3.94

Target: ARHGEF12, Q9NZN5-2
Sequence (Q9NZN5 other isoform, or with tags, fused parts or gaps): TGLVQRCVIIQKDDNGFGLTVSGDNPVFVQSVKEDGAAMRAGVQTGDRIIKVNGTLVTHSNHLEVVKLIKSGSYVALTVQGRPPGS
Test: holdup assay
Parameters: key: below the threshold = too weak to quantify, mostly under pKd 3.1 to 4
Details: plain residues with an end cap or a label only (N-terminal biotin on a linker: ado-ado)

Row | Binder | pKd
3 | B1 | 3.84

Target: T2, DVL3, Q92997
Test: holdup assay
Parameters: key: below the threshold = too weak to quantify, mostly under pKd 3.1 to 4
Details: plain residues with an end cap or a label only (N-terminal biotin on a linker: ado-ado)

Row | Binder | pKd
4 | B1 | 3.81

Target: Inadl_3, Q8NI35
Sequence (Q8NI35 359-469): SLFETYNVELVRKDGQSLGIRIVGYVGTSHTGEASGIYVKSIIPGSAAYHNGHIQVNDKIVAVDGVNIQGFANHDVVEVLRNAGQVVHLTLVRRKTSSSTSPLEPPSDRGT
Test: holdup assay
Parameters: key: below the threshold = too weak to quantify, mostly under pKd 3.1 to 4
Details: plain residues with an end cap or a label only (N-terminal biotin on a linker: ado-ado)

Row | Binder | pKd
5 | B1 | 3.57

Target: T3, HTRA4, P83105
Test: holdup assay
Parameters: key: below the threshold = too weak to quantify, mostly under pKd 3.1 to 4
Details: plain residues with an end cap or a label only (N-terminal biotin on a linker: ado-ado)

Row | Binder | pKd
6 | B1 | 4.08

Target: T4, MPP2, Q14168
Test: holdup assay
Parameters: key: below the threshold = too weak to quantify, mostly under pKd 3.1 to 4
Details: plain residues with an end cap or a label only (N-terminal biotin on a linker: ado-ado)

Row | Binder | pKd
7 | B1 | below the threshold

Target: T5, APBA2_1, Q99767
Test: holdup assay
Parameters: key: below the threshold = too weak to quantify, mostly under pKd 3.1 to 4
Details: plain residues with an end cap or a label only (N-terminal biotin on a linker: ado-ado)

Row | Binder | pKd
8 | B1 | below the threshold

Target: T6, SNTG1, Q9NSN8
Test: holdup assay
Parameters: key: below the threshold = too weak to quantify, mostly under pKd 3.1 to 4
Details: plain residues with an end cap or a label only (N-terminal biotin on a linker: ado-ado)

Row | Binder | pKd
9 | B1 | below the threshold

Target: T7, APBA1_2, Q02410
Test: holdup assay
Parameters: key: below the threshold = too weak to quantify, mostly under pKd 3.1 to 4
Details: plain residues with an end cap or a label only (N-terminal biotin on a linker: ado-ado)

Row | Binder | pKd
10 | B1 | 4

Target: GRIP2_3, Q9C0E4
Sequence (Q9C0E4 238-339): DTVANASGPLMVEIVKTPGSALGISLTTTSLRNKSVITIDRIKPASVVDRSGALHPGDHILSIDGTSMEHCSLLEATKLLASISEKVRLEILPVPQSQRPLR
Test: holdup assay
Parameters: key: below the threshold = too weak to quantify, mostly under pKd 3.1 to 4
Details: plain residues with an end cap or a label only (N-terminal biotin on a linker: ado-ado)

Row | Binder | pKd
11 | B1 | below the threshold

Target: T8, MPDZ_12, O75970
Test: holdup assay
Parameters: key: below the threshold = too weak to quantify, mostly under pKd 3.1 to 4
Details: plain residues with an end cap or a label only (N-terminal biotin on a linker: ado-ado)

Row | Binder | pKd
12 | B1 | below the threshold

Target: LIMK2, P53671
Sequence (P53671 143-248): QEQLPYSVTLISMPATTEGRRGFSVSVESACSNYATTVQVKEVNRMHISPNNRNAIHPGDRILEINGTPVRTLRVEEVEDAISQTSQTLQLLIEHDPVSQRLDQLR
Test: holdup assay
Parameters: key: below the threshold = too weak to quantify, mostly under pKd 3.1 to 4
Details: plain residues with an end cap or a label only (N-terminal biotin on a linker: ado-ado)

Row | Binder | pKd
13 | B1 | below the threshold

Target: TJP1_2, Q07157
Sequence (Q07157 181-274): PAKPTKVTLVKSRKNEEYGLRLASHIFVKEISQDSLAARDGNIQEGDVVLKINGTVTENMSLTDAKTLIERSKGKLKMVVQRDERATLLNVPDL
Test: holdup assay
Parameters: key: below the threshold = too weak to quantify, mostly under pKd 3.1 to 4
Details: plain residues with an end cap or a label only (N-terminal biotin on a linker: ado-ado)

Row | Binder | pKd
14 | B1 | below the threshold

Target: T9, TIAM2, Q8IVF5
Test: holdup assay
Parameters: key: below the threshold = too weak to quantify, mostly under pKd 3.1 to 4
Details: plain residues with an end cap or a label only (N-terminal biotin on a linker: ado-ado)

Row | Binder | pKd
15 | B1 | 3.94

Target: MAST2, Q6P0Q8
Sequence (Q6P0Q8 1099-1202): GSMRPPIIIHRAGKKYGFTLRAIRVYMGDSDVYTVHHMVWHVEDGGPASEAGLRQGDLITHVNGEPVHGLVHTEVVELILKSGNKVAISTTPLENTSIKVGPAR
Test: holdup assay
Parameters: key: below the threshold = too weak to quantify, mostly under pKd 3.1 to 4
Details: plain residues with an end cap or a label only (N-terminal biotin on a linker: ado-ado)

Row | Binder | pKd
16 | B1 | 3.77

Target: T10, PDZD7_3, Q9H5P4
Test: holdup assay
Parameters: key: below the threshold = too weak to quantify, mostly under pKd 3.1 to 4
Details: plain residues with an end cap or a label only (N-terminal biotin on a linker: ado-ado)

Row | Binder | pKd
17 | B1 | below the threshold

Target: T11, MPP7, Q5T2T1
Test: holdup assay
Parameters: key: below the threshold = too weak to quantify, mostly under pKd 3.1 to 4
Details: plain residues with an end cap or a label only (N-terminal biotin on a linker: ado-ado)

Row | Binder | pKd
18 | B1 | below the threshold

Target: T12, GRIP1_7, Q9Y3R0
Test: holdup assay
Parameters: key: below the threshold = too weak to quantify, mostly under pKd 3.1 to 4
Details: plain residues with an end cap or a label only (N-terminal biotin on a linker: ado-ado)

Row | Binder | pKd
19 | B1 | below the threshold

Target: T13, NHERF3_3, Q5T2W1
Test: holdup assay
Parameters: key: below the threshold = too weak to quantify, mostly under pKd 3.1 to 4
Details: plain residues with an end cap or a label only (N-terminal biotin on a linker: ado-ado)

Row | Binder | pKd
20 | B1 | below the threshold

Target: GOPC, Q9HD26
Test: holdup assay
Parameters: key: below the threshold = too weak to quantify, mostly under pKd 3.1 to 4
Details: plain residues with an end cap or a label only (N-terminal biotin on a linker: ado-ado)

Row | Binder | pKd
21 | B1 | 3.66

Target: DLG5_1, Q8TDM6
Sequence (Q8TDM6 617-713): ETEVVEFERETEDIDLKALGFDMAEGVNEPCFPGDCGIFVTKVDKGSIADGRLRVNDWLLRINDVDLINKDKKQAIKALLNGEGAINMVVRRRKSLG
Test: holdup assay
Parameters: key: below the threshold = too weak to quantify, mostly under pKd 3.1 to 4
Details: plain residues with an end cap or a label only (N-terminal biotin on a linker: ado-ado)

Row | Binder | pKd
22 | B1 | below the threshold

Target: T14, LNX2_2, Q8N448
Test: holdup assay
Parameters: key: below the threshold = too weak to quantify, mostly under pKd 3.1 to 4
Details: plain residues with an end cap or a label only (N-terminal biotin on a linker: ado-ado)

Row | Binder | pKd
23 | B1 | 4.98

Target: HTRA2, O43464
Sequence (O43464 355-458): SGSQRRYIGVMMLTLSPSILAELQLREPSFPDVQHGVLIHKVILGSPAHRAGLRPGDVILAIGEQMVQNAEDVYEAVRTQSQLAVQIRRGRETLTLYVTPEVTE
Test: holdup assay
Parameters: key: below the threshold = too weak to quantify, mostly under pKd 3.1 to 4
Details: plain residues with an end cap or a label only (N-terminal biotin on a linker: ado-ado)

Row | Binder | pKd
24 | B1 | 4.48
